Results: paper PMC4158420, “Crenactin from Pyrobaculum calidifontis is closely related to actin in structure and forms steep helical filaments” (Febs Letters, 2014)

Target: the molecule itself
Assay: crystal structure; vapour diffusion, crenactin around 2-5 mg/ml, 100 mM phosphate/citrate pH 4.2, 200 mM lithium sulfate, 20% PEG 1000; space group P41212; 3.2 Å; ADP bound

B1: Pyrobaculum calidifontis crenactin (natural protein, UniProt A3MWN5 1-432, looked up)
chain: MGVISDAYRLKYTFGVDFGTSYVKYGPITLNEPKMVQTRGLFLRDLPESVKMRIPPDVLARGLVVGDEEVRKYLSSVRDVQRNLKYPLKDGVARRDDEEAWRVLKELARYTLAQFPVSDPEFAGWLVAVALSALAPDYMYKAIFDIYDELASEFKIYAVTILPQPLAVAIAENAVNCVIVEGGHGNIQVAPISFALIREGLVALNRGGAEANAITREILKDIGYSDIAREEYAVEVVKRAVGLVPRRLKEAIRAAKSDPDRFVTKVRLSPVVEVEIPREYAWTRFLIGEIVFDPNHEEIKSYIEQSRLRIENAVIGDVTLYGEMDVASAIITSLRNVSVEIQERVASQIILSGGAFSWRVPPGMEDVAADSVTRVKIALEEKSPALASKVEVRLVSEPQYSVWRGAVIYGYALPLSLEWSDTTREGWRFPRR
notes: crenactin, Pyrobaculum calidifontis, NCBI YP_001056518.1, residues 1-432; full-length protein with no residues added or removed after SUMO cleavage; Gene codon-optimised for E. coli, cloned into pOPINS (HIS6-SUMO-POI); the crystal holds 2 monomers per asymmetric unit, packing as a continuous filament; also called Pc crenactin; source: E. coli BL21(AI), purified (HisTrap, SUMO protease SENP1 …)
binding result: binds
